Measurements from patent US20230357414A1 (SYNTHEKINE, published 2023).

T1: extracellular domain of human IL12Rb2 (amino acids 24-622 of hIL12Rb2, UniProt Q99665) (human, UniProt Q99665 24-622)
T1 construct: also called hIL12Rb2 ECD; hIL12Rb2-ECD
T1 sequence: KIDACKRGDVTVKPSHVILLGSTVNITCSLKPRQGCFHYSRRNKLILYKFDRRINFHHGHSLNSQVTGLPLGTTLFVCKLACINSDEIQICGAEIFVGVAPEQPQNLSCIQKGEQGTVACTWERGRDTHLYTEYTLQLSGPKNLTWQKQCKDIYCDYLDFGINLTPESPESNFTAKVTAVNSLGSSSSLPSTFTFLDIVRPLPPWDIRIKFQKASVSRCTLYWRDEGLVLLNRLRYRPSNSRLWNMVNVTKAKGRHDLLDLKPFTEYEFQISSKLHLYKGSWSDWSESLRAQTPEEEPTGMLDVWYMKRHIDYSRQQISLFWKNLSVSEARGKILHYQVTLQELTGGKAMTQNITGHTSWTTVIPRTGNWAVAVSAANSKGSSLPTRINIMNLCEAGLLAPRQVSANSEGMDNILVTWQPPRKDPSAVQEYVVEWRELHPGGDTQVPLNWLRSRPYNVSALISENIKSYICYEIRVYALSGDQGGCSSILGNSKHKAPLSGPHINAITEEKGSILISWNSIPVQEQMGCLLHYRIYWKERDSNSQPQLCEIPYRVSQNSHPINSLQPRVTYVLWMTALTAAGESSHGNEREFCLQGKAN

T2: extracellular domain of mouse IL12Rb2 (614 amino acids, amino acids 24-637 of the mIL12Rb2 precursor, UniProt … (mouse, UniProt P97378 24-637))
T2 construct: also called mIL12Rb2 ECD; mIL12Rb2 ECD antigen
T2 sequence: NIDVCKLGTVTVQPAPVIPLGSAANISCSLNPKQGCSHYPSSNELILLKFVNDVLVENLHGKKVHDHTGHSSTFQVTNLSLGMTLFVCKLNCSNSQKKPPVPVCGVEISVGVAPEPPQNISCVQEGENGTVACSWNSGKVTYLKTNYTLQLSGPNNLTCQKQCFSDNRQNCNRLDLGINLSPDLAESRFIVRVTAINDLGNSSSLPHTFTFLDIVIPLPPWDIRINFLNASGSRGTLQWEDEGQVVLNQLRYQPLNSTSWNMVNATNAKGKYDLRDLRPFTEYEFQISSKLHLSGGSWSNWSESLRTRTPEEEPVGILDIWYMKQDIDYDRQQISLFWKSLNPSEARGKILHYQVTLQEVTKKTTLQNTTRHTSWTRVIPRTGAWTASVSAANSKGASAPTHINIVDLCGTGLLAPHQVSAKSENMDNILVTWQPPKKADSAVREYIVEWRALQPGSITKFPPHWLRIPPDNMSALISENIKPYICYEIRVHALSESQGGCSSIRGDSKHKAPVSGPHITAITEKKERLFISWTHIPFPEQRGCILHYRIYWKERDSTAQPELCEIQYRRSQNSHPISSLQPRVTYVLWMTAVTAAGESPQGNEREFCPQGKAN


target: T1, extracellular domain of human IL12Rb2 …; test: periplasmic extract ELISA on antigen-coated plate; positive if A450 at least threefold over PBS-coated control
Protocol: (§1) Upon completion of the biopanning of Example 3, three 96-well plates of individual phage clones were isolated in order to perform periplasmic extract ELISA (PE-ELISA) on IL12Rb2 coated plates to identify positive VHH binders that selectively bound IL12Rb2. A 96-well plate was coated with IL12Rb2 and PBS under the same conditions. Next, wells were blocked at 37° C. for 1 h. Then, 100 μl of extracted antibodies was added to each well and incubated for 1 h. Subsequently, 100 μl of anti-tag polyclonal antibody conjugated to HRP was added to each well and incubated at 37° C. for 1 h. Plates were developed with TMB substrate. The reaction was stopped by the addition of H2SO4. Absorbance at 450 nm was read on a microtiter plate reader. Antibodies with absorbance of the antigen-coated well at least threefold greater than PBS-coated control are VHHs that specifically bind to IL 12Rb2. Positive clones were sequenced, and sequences analyzed to identify unique clonotypes

| Binder | binding result |
| --- | --- |
| VHH14 (VHH, Camel VHH, tested as a periplasmic extract of a phage clone; also called anti-human IL12Rb2 VHH14; hIL12Rb2 VHH; not shown: HA/His tag encoded by the pMECS phagemid) VHH: QVQLQESGGGSVQAGGSLRLSCAASGVTYSRYCMGWFRQAPGLERERVAHIYSRGIITYYTDSVKGRFTISQDSAKKTVYLQMNSLKPEDTAMYYCAATRETYGGSGDCGYESVYNYWAQGTQVTVSS | binds |
| VHH12 (VHH, Camel VHH, tested as a periplasmic extract of a phage clone; also called anti-human IL12Rb2 VHH12; hIL12Rb2 VHH; not shown: HA/His tag encoded by the pMECS phagemid) VHH: QVQLQESGGGSVQAGGSLRLSCAASGVTYSRYCMGWFRQAPGLERERVATIYSRGIITYYTDSVKGRFTISQDSAKKTVYLQMNMLKPEDTAMYYCAATRETYGGSGDCDYESVYNYWAQGTQVTVSS | binds |
| VHH16 (VHH, Camel VHH, tested as a periplasmic extract of a phage clone; also called anti-human IL12Rb2 VHH16; hIL12Rb2 VHH; not shown: HA/His tag encoded by the pMECS phagemid) VHH: QVQLQESGGGSVQAGGSLRLSCAASGVTYSRYCMGWFRQAPGLERERVAHIYSRGIITYYTDSVKGRFTISQDSAKKTVYLQMNSLKPEDTAMYYCAATRETYGGSGDCSYESVYNHWAQGTQVTVSS | binds |
| VHH5 (VHH, Camel VHH, tested as a periplasmic extract of a phage clone; also called anti-human IL12Rb2 VHH5; hIL12Rb2 VHH; not shown: HA/His tag encoded by the pMECS phagemid) VHH: QVQLQESGGGLVQPGGSLKLSCAASGFTFSTYAMSWVRQAPGKEPEWISRISSGGGNTYYADAVKGRFAISRDNAKNTLYLQLNSLKTEDTAIYVCTMDDYYGGSWHPISRGHGTQVTVSS | binds |

target: T2, extracellular domain of mouse IL12Rb2 …; test: as above
Protocol: as §1

| Binder | binding result |
| --- | --- |
| mIL12Rb2 VHH5 (VHH, Camel VHH, tested as a periplasmic extract of a phage clone; also called anti-mouse IL12Rb2 VHH5; not shown: HA/His tag encoded by the pMECS phagemid) VHH: QVQLQESGGGSVQAGGSLRLSCAASGITYRGVWMGWFRQAPGKEREGVATIYTGSGHTYYADSVKGRFTISQDNAKNTVYLQMNSLKPEDTAMYYCAARTVGGTFYTLAADSFNTWGQGTQVTVSS | binds |
| mIL12Rb2 VHH1 (VHH, Camel VHH, tested as a periplasmic extract of a phage clone; also called anti-mouse IL12Rb2 VHH1; not shown: HA/His tag encoded by the pMECS phagemid) VHH: QVQLQESGGGSVQAGGSLRLSCAASGYTYSNRHMGWFRQAPGKEREGVAAIYTGGGSTYYADSVKDRFTISQDNAKNTLYLQMNSLTPEDTAMYYCAADLTRWYSGGWRDPRGYKYWGQGTQVTVS | binds |
| mIL12Rb2 VHH2 (VHH, Camel VHH, tested as a periplasmic extract of a phage clone; also called anti-mouse IL12Rb2 VHH2; not shown: HA/His tag encoded by the pMECS phagemid) VHH: QVQLQESGGGSVQAGGSLRLSCAASGVTYGSYYMAAWFRQAPGKEREGVASIYGGSDSTYYADSVLGRFTISQDNGKNTLYLQMNSLKPDDTAMYYCAAAPPGKWFLKRLEGHNYSYWGQGTQVTVSS | binds |
| mIL12Rb2 VHH6 (VHH, Camel VHH, tested as a periplasmic extract of a phage clone; also called anti-mouse IL12Rb2 VHH6; not shown: HA/His tag encoded by the pMECS phagemid) VHH: QVQLQESGGGSVQAGGSLRLSCAVSGKAYGGAWFRQAQGKGREGVAAIWIGTGTTFYADSVKGRFTISRDNAKNTVYLQMDGLKPEDTAVYYCAADDRPGYRDPLAPVSYNHWGQGTQVTVSS | binds |
| mIL12Rb2 VHH9 (VHH, Camel VHH, tested as a periplasmic extract of a phage clone; also called anti-mouse IL12Rb2 VHH9; not shown: HA/His tag encoded by the pMECS phagemid) VHH: QVQLQESGGGSVQAGGSLTLSCVVSGKAFGGAWFRQAQGKGREGVAAIWIGTGTTFYADSVKGRFTISRDNAKNTVYLQMDGLKPDDTAMYYCAADDRPGYRDPLAPVSYNHWGQGTQVTVSS | binds |
| mIL12Rb2 VHH4 (VHH, Camel VHH, tested as a periplasmic extract of a phage clone; also called anti-mouse IL12Rb2 VHH4; not shown: HA/His tag encoded by the pMECS phagemid) VHH: QVQLQESGGGSVQVGGSLRLSCAVSGKLYGGAWFRQAQGKGREGVAAIWIGTGTTFYADSVKGRFTISRDNAKNTVYLQMDGLKPEDTALYYCAADDRPGYRDPLAPVSYNHWGQGTQVTVSS | binds |
| mIL12Rb2 VHH7 (VHH, Camel VHH, tested as a periplasmic extract of a phage clone; also called anti-mouse IL12Rb2 VHH7; not shown: HA/His tag encoded by the pMECS phagemid) VHH: QVQLQESGGGSVQAGGSLKLSCAVSGNPYGGAWFRQAQGKSREGVAAIWLGTGTTFYADSVKGRFTISRDNAKNTVYVQIDGLKPEDTAMYYCAADDRPGYRDPLAPVSYNHWGQGTQVTVSS | binds |
| mIL12Rb2 VHH8 (VHH, Camel VHH, tested as a periplasmic extract of a phage clone; also called anti-mouse IL12Rb2 VHH8; not shown: HA/His tag encoded by the pMECS phagemid) VHH: QVQLQESGGGSVQAGGSLRLSCVVSGKAYGGAWFRQAQGKSREGVAAIWIGTGTTFYADSVKGRFTISRDNAKNTVYLQMDGLKPEDTAMYYCAADDRPGYRDPLAPVSYNHWGQGTQVTVSS | binds |
